Reference: the supplement of paper PMC7125110
± gives the standard error. For some assays here: This sample holds only a part of the variants without activity.

B1: glmS ribozyme (parent)
chain: AUAAAAGCGCCAGAACUACAGAAAUGUAGUUGACGAGGAGGAGGUUUAUCGAAUUUUCGGCGGAUGCCUCCAAA

Tests used:
Conditions in all cases: with glucosamine-6-phosphate
glucosamine-6-phosphate [1] = variants of: B1; assay: kcat; higher = faster cleavage; RNA array
Outline: (§1)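 Sequenced MiSeq chips were the platform: E. coli RNA polymerase transcribed barcoded ribozyme variants on them in situ, and a hybridised Cy3 probe tracked these at 37 °C. After glucosamine-6-phosphate (40 μM to 10 mM) in HEPES/KCl/Mg(OAc)2 buffer was flowed in, tiles were imaged over ~14 h. Signals normalised to baseline and to non-cleaving reference variants were reduced to per-tile medians and fit to one- or two-exponential decays to obtain kobs. kcat and KM were derived through weighted Michaelis–Menten fits across concentrations.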

glucosamine-6-phosphate [2] = variants of: B1; assay: KM; higher = weaker cofactor use; RNA array
Outline: as §1

glucosamine-6-phosphate [3] = variants of: B1; assay: self-cleavage kobs at 640 uM GlcN6P; higher = faster cleavage; RNA array
Outline: as §1

glucosamine-6-phosphate [4] = variants of: B1; assay: self-cleavage kobs at 2500 uM GlcN6P; higher = faster cleavage; RNA array
Outline: as §1

glucosamine-6-phosphate [5] = variants of: B1; assay: self-cleavage kobs at 10000 uM GlcN6P; higher = faster cleavage; RNA array
Outline: as §1

glucosamine-6-phosphate [6] = variants of: B1; assay: self-cleavage kobs at 160 uM GlcN6P; higher = faster cleavage; RNA array
Outline: as §1

glucosamine-6-phosphate [7] = variants of: B1; assay: self-cleavage kobs at 40 uM GlcN6P; higher = faster cleavage; RNA array
Outline: as §1

Variant	kcat (glucosamine-6-phosphate [1]) [s⁻¹]	KM (glucosamine-6-phosphate [2]) [µM]	self-cleavage kobs at 640 uM GlcN6P (glucosamine-6-phosphate [3]) [s⁻¹]	self-cleavage kobs at 2500 uM GlcN6P (glucosamine-6-phosphate [4]) [s⁻¹]	self-cleavage kobs at 10000 uM GlcN6P (glucosamine-6-phosphate [5]) [s⁻¹]	self-cleavage kobs at 160 uM GlcN6P (glucosamine-6-phosphate [6]) [s⁻¹]	self-cleavage kobs at 40 uM GlcN6P (glucosamine-6-phosphate [7]) [s⁻¹]
G32U U47G	0.000502 ± 8.1e-05	4700 ± 1400	5.12e-05 ± 1.7e-05	0.000189 ± 3.3e-05	0.000336 ± 4.6e-05	–	–
A6U C67U	8.67e-05 ± 4.7e-06	565 ± 160	4.42e-05 ± 8.6e-06	8.14e-05 ± 1.1e-05	8.01e-05 ± 6.2e-06	–	–
G35C C50G G60U	3.38e-05 ± 1.4e-05	–	–	–	–	5.86e-05 ± 1.9e-05	–
G13U U31G	0.000294 ± 0.0001	–	4.24e-05 ± 8.5e-06	0.000226 ± 2.7e-05	0.000207 ± 2.6e-05	2.89e-05 ± 1.3e-05	–
A12G U30A	0.00011 ± 1.9e-06	2890 ± 160	–	5.17e-05 ± 9.7e-06	8.52e-05 ± 7.5e-06	–	–
A15C U46G	0.00166 ± 0.00022	3240 ± 690	0.000271 ± 4.6e-05	0.000681 ± 0.00011	0.00129 ± 0.00019	8.08e-05 ± 2.2e-05	–
C67G C71A	< 1e-05	–	–	–	–	–	–
A42G U69G	0.000182 ± 2.9e-05	–	0.000119 ± 4.1e-05	–	0.000202 ± 4.3e-05	–	5.35e-05 ± 2.1e-05
U56C U65A	0.0012 ± 0.00021	7470 ± 2000	0.000115 ± 2.5e-05	0.000269 ± 5.1e-05	0.000702 ± 8.3e-05	2.29e-05 ± 1.1e-05	–
A12U A39C	0.00341 ± 0.00095	2770 ± 1100	0.000656 ± 8.7e-05	0.00163 ± 0.00023	0.00266 ± 0.00035	0.000149 ± 2.7e-05	9.51e-05 ± 1.7e-05
U46G U69G	7.96e-05 ± 5.9e-06	–	0.000111 ± 1.6e-05	7.44e-05 ± 1.1e-05	7.71e-05 ± 5.3e-06	7.35e-05 ± 1.7e-05	5.51e-05 ± 9.4e-06
G29A G37C	1.28e-05 ± 1.4e-06	–	–	–	–	–	–
A15U A48C	2.45e-05 ± 3.9e-06	–	–	–	–	–	–
G29U G41U	8.68e-05 ± 1.2e-05	651 ± 270	5.08e-05 ± 1.6e-05	6.65e-05 ± 2.9e-05	7.94e-05 ± 2.1e-05	–	–
A33U U55C	0.000106 ± 1.2e-05	6170 ± 1300	–	3.12e-05 ± 5.7e-06	6.51e-05 ± 7.8e-06	–	< 1e-05
A33G C50G	0.000122 ± 3.3e-05	–	0.000161 ± 2.3e-05	0.000102 ± 1.6e-05	–	7.8e-05 ± 1.6e-05	–
A53C C67G	3.47e-05 ± 4.1e-06	–	–	3.42e-05 ± 9e-06	3.14e-05 ± 6.5e-06	–	< 1e-05

Variant	kcat (glucosamine-6-phosphate [1]) [s⁻¹]	KM (glucosamine-6-phosphate [2]) [µM]	self-cleavage kobs at 640 uM GlcN6P (glucosamine-6-phosphate [3]) [s⁻¹]	self-cleavage kobs at 2500 uM GlcN6P (glucosamine-6-phosphate [4]) [s⁻¹]	self-cleavage kobs at 10000 uM GlcN6P (glucosamine-6-phosphate [5]) [s⁻¹]	self-cleavage kobs at 160 uM GlcN6P (glucosamine-6-phosphate [6]) [s⁻¹]	self-cleavage kobs at 40 uM GlcN6P (glucosamine-6-phosphate [7]) [s⁻¹]
A14U G41A	0.000406 ± 0.00011	–	9.05e-05 ± 2e-05	0.000422 ± 8.6e-05	0.000317 ± 5e-05	–	–
A12U C67G C68G	4.76e-05 ± 1.4e-05	–	6.79e-05 ± 1.9e-05	4.47e-05 ± 1.5e-05	–	7.57e-05 ± 3.2e-05	–
U46G U56G	0.00393 ± 0.00066	1690 ± 350	0.00128 ± 0.00033	0.00271 ± 0.00083	0.0029 ± 0.001	0.000353 ± 0.00012	8.55e-05 ± 1.5e-05
A12G A53C	0.000173 ± 3.8e-05	2220 ± 1100	5e-05 ± 6.8e-06	7.64e-05 ± 8.5e-06	0.000157 ± 1.5e-05	–	–
A12C U30C	0.00413 ± 0.0012	3850 ± 1500	0.000707 ± 9.2e-05	0.00145 ± 0.0002	0.00306 ± 0.00028	0.000121 ± 2e-05	6.11e-05 ± 7.7e-06
A39C G44C	1.03e-05 ± 1.3e-06	3630 ± 1200	–	–	–	< 1e-05	–
G51U C58G	1.13e-05 ± 4.5e-06	–	< 1e-05	–	< 1e-05	–	< 1e-05
C61A U65G C67U	2.68e-05 ± 7.3e-06	–	–	–	–	–	–
G37C G51A	< 1e-05	–	–	–	–	< 1e-05	–
A39G A52U	0.00125 ± 0.00024	–	4.99e-05 ± 2.1e-05	0.000222 ± 4.6e-05	0.00054 ± 7.6e-05	–	< 1e-05
G7U G37C	< 1e-05	–	< 1e-05	–	–	–	< 1e-05
U54C U57C	0.000143 ± 2e-05	3450 ± 1100	–	6.28e-05 ± 1.1e-05	0.000105 ± 1.6e-05	–	–
U57A C67A	0.000119 ± 3.3e-05	–	4.64e-05 ± 1.4e-05	4.66e-05 ± 7.6e-06	9.37e-05 ± 1.1e-05	–	–
C10A A12C	0.00025 ± 4.4e-05	2520 ± 930	4.03e-05 ± 8.4e-06	0.000143 ± 1.2e-05	0.000185 ± 1.9e-05	–	–
C19A A42G	0.00828 ± 0.0016	164 ± 59	0.00596 ± 0.0022	–	–	–	0.00166 ± 0.00056
C34A A36U	< 1e-05	–	< 1e-05	< 1e-05	< 1e-05	–	< 1e-05
A15U A52G	0.00041 ± 2.6e-05	2270 ± 280	8.94e-05 ± 1.6e-05	0.000222 ± 3.6e-05	0.000331 ± 4.6e-05	–	–
